Source: US7910550B2, “Human kunitz-type inhibitor with enhanced antifibrinolytic activity” (STC.UNM, priority 2004, dated 2011)

Experiments:
[1] = tested on: HT-1080 cells; assay: DNA fragmentation analysis by agarose gel electrophoresis; type: cell-based, human; details: 48 hours
Protocol: Cells were grown to confluence in 6-well plates and treated with either wild-type TFPI-2 or R24K KD1 at the same concentrations described above. After incubation for either 24 or 48 hours at 37° C., the cells were harvested and washed twice with PBS. The DNA was then extracted using the DNEASY tissue kit (Qiagen, Valencia, Calif.) accordingly to the manufacturer's instructions. DNA extracts were electrophoresed in 1.8% agarose gels at 100 V for 45 minutes and visualized with ethidium bromide staining under UV illumination.

[2] = tested on: HT-1080 cells; assay: FACS analysis of apoptosis with annexin V/propidium iodide; type: cell-based, human; details: 1 μM, 48 hours; for cells in a late apoptotic stage (annexin V and PI positive): vehicle 4%; for early apoptotic cells (annexin V-FITC positive): vehicle 16%
Protocol: (§1) All cell lines were maintained in Dulbecco's minimal essential medium (DMEM), supplemented with heat-inactivated 10% fetal bovine serum and penicillin-streptomycin. The cells were cultured either in 6- or 12-well plates at 37° C. in a humidified atmosphere containing 6% CO2. At confluence, the cells were treated with fresh medium containing either wild-type TFPI-2, R24K KD1, or R24Q KD1. Cells were treated in duplicate with purified proteins at concentrations ranging from 0.5 μM to 10 μM for different time intervals. One set were also treated with PBS to serve as a control. The Limulus Amebocyte Lysate (LAL) assay was performed on each protein preparation to determine the presence of any endotoxin/LPS, and only trace amounts of endotoxin (<0.5 ng/L) were detected in each protein preparation.
To assess the degree of apoptosis between the various treatments, cells were grown to confluence in 6 well plates and treated with either proteins or vehicle as described earlier. For annexin V staining, approximately 1.2×10^6 cells were harvested with PBS containing 1 mM EDTA and washed twice gently with cold PBS. The cells were suspended in 100 μl of cold binding buffer (10 mM Hepes (pH 7.4), 140 mM NaCl, 2.5 mM CaCl2), and subsequently incubated at room temperature in the dark for 25 minutes with 5 μl of FITC-conjugated annexin V and 10 μl of propidium iodide (50 μg/ml stock). The cells were then washed in 500 μl of binding buffer to remove unbound reagents, centrifuged at 900×g for 5 minutes, and resuspended in 1 ml of cold binding buffer. The labeled cells were then analyzed using a FACSCALIBUR flow cytometer (Becton Dickinson, San Jose, Calif.) and the data analyzed using […] software.

[3] = target: factor VIIa-tissue factor complex (Homo sapiens, UniProt P08709); assay: Inhibition assay for factor VIIa-tissue factor amidolytic activity (S-2288); type: biochemical; design: purchased Novo Nordisk (Copenhagen, Denmark) for factor VIIa (provided as a gift); soluble tissue factor prepared in house by a published method (Petersen et al., 1996); details: relative to wild-type KD1
Protocol: Recombinant soluble human tissue factor (100 nM) and factor VIIa (50 nM) were incubated in a TBS-BSA buffer/5 mM CaCl2 for 15 minutes at 37° C. Following this incubation, aliquots (100 μl) were dispensed into a 96-well microtitration plate and treated with serial dilutions of inhibitors dissolved in TBS buffer. After 15 minutes of incubation, 30 μl of S-2288 (final concentration, 1 mM) was added to each well and the absorbance at 405 nm was determined as described earlier.
The apparent inhibition constant, Ki′ was determined using the non-linear regression data analysis program Ultrafitfv3.0 (Biosoft). Trypsin and plasmin inhibitory data were analyzed according to the following equation for a tight-binding inhibitor: vi=v0[√(Ki′+[I]0+[E]0)^2−4[I]0[E]0−(Ki′+[I]0−[E]0)]/2[E]0 where vi and v0 are the inhibited and uninhibited rates, respectively, and [I]0 and [E]0 are the total concentrations of inhibitor and enzyme, respectively. Factor VIIa-tissue factor inhibition data, where Ki>>[E]0, were analyzed according to the following equation: vi=v0/(1+[I]0/Ki′) Ki values were obtained by correcting for the effect of substrate according to Bieth et al. (Biochem. Med., 32:387-397, 1984), where Ki=Ki′/(1+[S]/Km) Results Molecular Modeling and Selection of Mutations

[4] = tested on: HT-1080 cells; assay: Western blot of cell extracts (Bax, Bcl-2, cleaved caspase-9, cleaved caspase-3); type: cell-based, human; details: 1 μM, 48 hours; for activated caspase 9 and activated caspase 3 (immunoblot): vs vehicle-treated cells
Protocol: Cell extracts were analyzed for the pro-apoptotic Bax, the anti-apoptotic Bcl-2, cleaved caspase-9 and cleaved caspase-3 by immunoblotting techniques. Approximately, 1×10^6 HT-1080 cells were grown to confluence in 6-well plates and treated with recombinant proteins and vehicle as described above. Both floating and adherent cells were harvested and washed twice with cold PBS. The cells were lysed by sonication in 500 μl of lysis buffer containing of 125 mM Tris-HCl (pH 6.8), 2% SDS, 10% glycerol, 50 mM sodium phosphate, 1 mM PMSF and protease inhibitor cocktail. The lysate was kept on ice for about 10 minutes, centrifuged for 15 minutes at 10,000×g at 4° C., and the supernatant recovered. The supernatants were boiled for 3 min and 50 μg of lysate protein subjected to SDS-PAGE in 4-20% polyacrylamide gradient gels. […] The nitrocellulose membranes were then probed with specific antibodies dissolved in fresh blocking buffer, and immunoreactive proteins were identified using HRP-conjugated secondary antibodies and a chemiluminescent reagent system essentially as described in Kempiah et al., Mol. Cancer, 6:20, 2007. Separate blots were treated with mouse monoclonal anti-α-tubulin antibody in order to verify equal loading of lysate proteins onto the gel.

[5] = tested on: HT-1080 cells; assay: Apoptosis detection by AO/EB staining; type: cell-based, human; details: 1 μM, 48 h; approximately 5% in vehicle-treated cells
Protocol: as §1
Cells were grown to confluence in two-chamber culture slides containing 2 ml medium. For AO/EB staining, the cultures were treated with recombinant proteins as described above. […] Cells were viewed within 30 minutes of staining and counted using a Zeiss axiocam epifluorescence microscope (Carl Zeiss, Inc., Thornwood, N.Y.) equipped with a triple cube filter [DAPI/FITC/RITC]. […] Experiments were performed in triplicate, and a minimum of 100 total live and apoptotic cells were counted in each treatment.

Chain of factor VIIa-tissue factor complex (P08709 213-466 limits assumed): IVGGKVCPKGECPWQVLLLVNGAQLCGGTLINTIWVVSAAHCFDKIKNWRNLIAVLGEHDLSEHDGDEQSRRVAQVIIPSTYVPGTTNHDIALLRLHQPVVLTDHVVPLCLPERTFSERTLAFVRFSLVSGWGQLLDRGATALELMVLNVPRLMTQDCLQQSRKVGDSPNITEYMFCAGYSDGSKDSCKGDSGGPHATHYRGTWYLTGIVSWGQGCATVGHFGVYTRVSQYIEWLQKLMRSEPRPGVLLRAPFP
Chain of factor VIIa-tissue factor complex (P08709 61-212 partner limits assumed): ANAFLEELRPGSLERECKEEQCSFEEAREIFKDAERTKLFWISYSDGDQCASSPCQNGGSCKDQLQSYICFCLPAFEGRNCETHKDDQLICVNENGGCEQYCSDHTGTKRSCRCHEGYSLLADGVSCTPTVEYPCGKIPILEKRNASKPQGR
Chain of factor VIIa-tissue factor complex (P13726 33-251 partner limits assumed): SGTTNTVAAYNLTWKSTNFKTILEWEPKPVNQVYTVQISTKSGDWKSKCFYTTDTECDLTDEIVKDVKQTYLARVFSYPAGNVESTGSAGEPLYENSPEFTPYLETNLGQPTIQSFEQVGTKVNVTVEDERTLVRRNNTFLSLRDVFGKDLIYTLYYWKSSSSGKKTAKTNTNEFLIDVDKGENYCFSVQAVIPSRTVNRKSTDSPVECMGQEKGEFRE

Molecule	DNA fragmentation [1]	cells in a late apoptotic stage (annexin V and PI positive) [2] [%]	early apoptotic cells (annexin V-FITC positive) [2] [%]	reduction in inhibitory activity towards factor VIIa / VIIa-TF [3]	Bax and Bcl-2 protein expression (immunoblot) [4]	activated caspase 9 and activated caspase 3 (immunoblot) [4]	apoptotic cells (AO/EB staining) [5] [%]
R24K KD1: KD1 with lysine in place of arginine at position 24 (SEQ ID NO:3) (protein, mutated active domain) DAAQEPTGNNAEICLLPLDYGPCKALLLRYYYDRYTQSCRQFLYGGCEGNANNFYTWEACDDACWRIEKVPKV	ladder pattern typically associated with DNA fragmentation and apoptosis	~58	41	approximately five-fold	increased expression of the pro-apoptotic protein, Bax, and decreased expression of the anti-apoptotic protein, Bcl-2	activation of caspase-9 and caspase-3	
TFPI-2: Human tissue factor pathway inhibitor-2, 213 amino acid polypeptide with three tandem Kunitz-type domains (SEQ ID NO:1) (protein, listed as Homo sapiens) DAAQEPTGNNAEICLLPLDYGPCRALLLRYYYDRYTQSCRQFLYGGCEGNANNFYTWEACDDACWRIEKVPKVCRLQVSVDDQCEGSTEKYFFNLSSMTCEKFFSGGCHRNRIENRFPDEATCMGFCAPKKIPSFCYSPKDEGLCSANVTRYYFNPRYRTCDAFTYTGCGGNDNNFVSREDCKRACAKALKKKKKMPKLRFASRIRKIRKKQF	ladder pattern typically associated with DNA fragmentation and apoptosis	~43	55		increased expression of the pro-apoptotic protein, Bax, and decreased expression of the anti-apoptotic protein, Bcl-2	activation of caspase-9 and caspase-3	39
